Measurements: patent US20220119492A1

Molecular target: T1, human IL-2Rβ (CD122 protein, Fc Tag) (27-239) (human), P14784
T1 chain: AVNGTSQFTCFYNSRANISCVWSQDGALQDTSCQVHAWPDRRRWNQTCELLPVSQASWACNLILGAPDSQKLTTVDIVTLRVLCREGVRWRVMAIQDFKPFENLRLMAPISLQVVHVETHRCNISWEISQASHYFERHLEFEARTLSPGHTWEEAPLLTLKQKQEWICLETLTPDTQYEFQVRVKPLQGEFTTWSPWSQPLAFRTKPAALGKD
Assay: competitive binding ELISA (Example 28)

IC50: < 10 µM
Binder: CCYQAMVGDLCDFC (modifications not checked) [IL-2Rβ ligand SEQ ID NO: 83]
